Data taken from patent US20150005237A1, “PEPTIDIC INHIBITOR OF SIGNAL TRANSMISSION FROM G-ALPHA-S TO G-ALPHA-I-COUPLED RECEPTOR CASCADES” (UNIVERSITÄT INNSBRUCK, priority 2011, published 2015).

Biological target: T1, recombinant GST-Gαi3 (Rattus norvegicus, UniProt P08753)
T1 construct: A fusion protein was constructed consisting of full-length Gαi3 and gluthatione S-transferase (GST); made in house; host or cells: Escherichia coli BL21
Assay: SPOT peptide dot blot overlay with recombinant GST-Gαi3
Type: binding
Settings: spotted 25 mers overlaid with GST-Gαi3 10 μg/ml
From the text: FIG. 4 Dot blot analysis of conserved amino acids (core element of SEQ ID No. 1, 2, extended sequences SEQ ID No. 4 and 5) in the Reggai sequence. Spotted peptides containing the Reggai sequence (25 mers) of RIIβ (Reg) (SEQ ID No. 7), its mutant functional variant (SEQ ID No. 8) and non-functional peptides not containing the Reggai core element of SEQ ID No. 1 variant (SEQ ID No. 9 to 15) (exchanged amino acids are underlined) were overlaid with recombinant GST-Gαi3. The box indicates the Reggai sequence. Densitometric analysis of the average of two independent dot blot experiments is shown as bar graph. […] SEQ ID No. 9 to 15 in FIG. 4 (2nd to 7th and 9th sequence) are non-inventive comparative peptides.
Overlapping peptides either of the wild type PKA regulatory subunit RIIβ (accession number: NP_002727) or peptides containing substitutions of conserved amino acids in the Reggai sequence were SPOT-synthesized (Synthetic peptide arrays on membrane supports) on distinct coordinates of a cellulose membrane (shown in FIG. 1c; starting from the N-terminus of RegIIβ with amino acid 1-25 [coordinate A1], amino acid 6-30 [coordinate A2], etc.). […] Interactions were detected with rabbit anti-GST and secondary horseradish peroxidase antibodies by a procedure identical to immunoblotting (IB), (see Stefan et al., J. Am. Soc. Nephrol. 18, 199-212 (2007)). […]

T1 sequence (P08753 whole entry, the tested form may be a part): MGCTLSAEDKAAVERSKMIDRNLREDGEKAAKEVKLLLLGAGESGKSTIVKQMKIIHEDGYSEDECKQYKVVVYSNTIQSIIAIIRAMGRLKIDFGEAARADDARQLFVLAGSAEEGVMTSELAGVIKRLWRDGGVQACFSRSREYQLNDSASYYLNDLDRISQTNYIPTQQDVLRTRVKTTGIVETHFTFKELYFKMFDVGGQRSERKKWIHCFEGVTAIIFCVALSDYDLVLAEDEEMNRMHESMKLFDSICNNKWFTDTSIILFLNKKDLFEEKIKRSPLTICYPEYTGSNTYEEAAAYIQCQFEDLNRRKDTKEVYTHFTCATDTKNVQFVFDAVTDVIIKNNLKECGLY

In the case of “QGASADSFFIVESGE (listed as Homo sapiens) [SEQ ID No. 8]”, the “binding of spotted peptide to recombinant GST-Gαi3 (dot blot)” value was “functional”.
